This test concerns the target Cavernularia obesa green fluorescent protein (CoGFP), wild-type, with a histidine tag at the N-terminus (Cavernularia obesa). The experiment in a line: SEC. (Size exclusion chromatography separates by hydrodynamic size, large species first.)

The stoichiometry N is the number of molecules, sites or subunits per partner or assembly. Substance “Cavernularia obesa green fluorescent protein (CoGFP), wild-type, with a histidine tag at the N-terminus (natural protein)” had a stoichiometry N of 2.

The record behind these values is publication PMC3884763.
